This passage reports stoichiometry N results from article PMC8339130.

The target in assay [1] is HIV-1 Gag matrix domain (MA) (HIV-1). As to the kind of experiment: crystal structure; MA co-crystallised with IP6; three crystal forms: cryogenic MA_IP6_R32 (2.40 Å), cryogenic MA_IP6_C2 (2.72 Å, six chains in the asymmetric unit), ambient-temperature SFX MA_IP6_SFX_P1 (3.5 Å); PEG 3350 or PEG 4000/2-propanol, 100 mM MES pH 6.0-6.5.
Assay [2] has the same target. The assay is described as above. The source holds these as a separate data set.

Like-named read-outs stand apart in the source and are kept apart here.

As a reminder, the stoichiometry N is the number of molecules, sites or subunits per partner or assembly. On to “HIV-1 Gag matrix domain (MA) (domain or fragment)”, for which the results for the stoichiometry N in assay [1] and in assay [2] were 6 and 3, respectively.
